This is an account of results in publication PMC5180179, “Bacteriophage T5 gene D10 encodes a branch-migration protein”.

For data set [1], the target named is T1, D10 helicase (wild type) (Bacteriophage T5, UniProt P11107 1-450).
T1 sequence: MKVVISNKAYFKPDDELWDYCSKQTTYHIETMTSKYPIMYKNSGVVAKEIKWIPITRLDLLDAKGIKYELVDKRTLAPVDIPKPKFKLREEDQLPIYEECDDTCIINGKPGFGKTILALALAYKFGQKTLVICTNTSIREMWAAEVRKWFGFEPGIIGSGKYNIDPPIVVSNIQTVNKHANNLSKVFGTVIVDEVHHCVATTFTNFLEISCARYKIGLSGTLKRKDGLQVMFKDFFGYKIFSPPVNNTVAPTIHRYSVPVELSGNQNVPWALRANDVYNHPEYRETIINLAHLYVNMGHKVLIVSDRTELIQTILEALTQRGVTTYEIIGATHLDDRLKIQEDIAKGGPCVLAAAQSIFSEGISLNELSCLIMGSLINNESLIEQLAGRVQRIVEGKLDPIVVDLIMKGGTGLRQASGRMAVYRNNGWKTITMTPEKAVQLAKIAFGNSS
Put plainly: EMSA with nonspecific competitor DNA; no ATP/Mg2+, 1 mM EDTA; EMSA: 0.1 nM DNA, 20 mM HEPES-NaOH pH 7.5, 135 mM NaCl, 0.1% NP40 alternative, 0.1 mg/ml BSA, 2 mM DTT, 1 mM EDTA, 10% glycerol, 22 °C, 20 min; footprinting the same with 10 nM DNA and no glycerol. As to conditions: protein: recombinant; tags: GST tag removed with thrombin; label: 5'-32P; three-way Y-junction, three 20 bp arms, nick in strand A at the junction. In general terms: Mobility shift assays separate free from complexed probe on a gel.

For data set [2], the target named is T1, D10 helicase (wild type). Put plainly: EMSA with poly d(AT) competitor; no ATP/Mg2+; 0.1 nM DNA, 0.4 nM D10 (all substrate bound); EMSA: 0.1 nM DNA, 20 mM HEPES-NaOH pH 7.5, 135 mM NaCl, 0.1% NP40 alternative, 0.1 mg/ml BSA, 2 mM DTT, 1 mM EDTA, 10% glycerol, 22 °C, 20 min; footprinting the same with 10 nM DNA and no glycerol. As to conditions: protein: recombinant; tags: GST tag removed with thrombin; label: 5'-32P on one strand; three-way Y-junction, three 20 bp arms.

Data set [3] deals with T1, D10 helicase (wild type). Description: EMSA with poly d(AT) competitor; no ATP/Mg2+; affinity near identical to Y20; EMSA: 0.1 nM DNA, 20 mM HEPES-NaOH pH 7.5, 135 mM NaCl, 0.1% NP40 alternative, 0.1 mg/ml BSA, 2 mM DTT, 1 mM EDTA, 10% glycerol, 22 °C, 20 min; footprinting the same with 10 nM DNA and no glycerol. As to conditions: protein: recombinant; tags: GST tag removed with thrombin; label: 5'-32P; three-way Y-junction, three 20 bp arms.

The target in data set [4] is T1, D10 helicase (wild type). Put plainly: EMSA with nonspecific competitor DNA; affinity similar to Y20; EMSA: 0.1 nM DNA, 20 mM HEPES-NaOH pH 7.5, 135 mM NaCl, 0.1% NP40 alternative, 0.1 mg/ml BSA, 2 mM DTT, 1 mM EDTA, 10% glycerol, 22 °C, 20 min; footprinting the same with 10 nM DNA and no glycerol. As to conditions: protein: recombinant, tags: GST tag removed with thrombin, label: 5'-32P, three-way Y-junction, three 20 bp arms.

The target of data set [5] is T1, D10 helicase (wild type). Description: EMSA; EMSA: 0.1 nM DNA, 20 mM HEPES-NaOH pH 7.5, 135 mM NaCl, 0.1% NP40 alternative, 0.1 mg/ml BSA, 2 mM DTT, 1 mM EDTA, 10% glycerol, 22 °C, 20 min; footprinting the same with 10 nM DNA and no glycerol. Conditions: protein: recombinant; tags: GST tag removed with thrombin; label: 5'-32P; four-way non-homologous Holliday junction, four 20 bp arms.

The target of the next data set is T2, D10 R389N (Bacteriophage T5, UniProt P11107 1-450, R389N).
T2 sequence: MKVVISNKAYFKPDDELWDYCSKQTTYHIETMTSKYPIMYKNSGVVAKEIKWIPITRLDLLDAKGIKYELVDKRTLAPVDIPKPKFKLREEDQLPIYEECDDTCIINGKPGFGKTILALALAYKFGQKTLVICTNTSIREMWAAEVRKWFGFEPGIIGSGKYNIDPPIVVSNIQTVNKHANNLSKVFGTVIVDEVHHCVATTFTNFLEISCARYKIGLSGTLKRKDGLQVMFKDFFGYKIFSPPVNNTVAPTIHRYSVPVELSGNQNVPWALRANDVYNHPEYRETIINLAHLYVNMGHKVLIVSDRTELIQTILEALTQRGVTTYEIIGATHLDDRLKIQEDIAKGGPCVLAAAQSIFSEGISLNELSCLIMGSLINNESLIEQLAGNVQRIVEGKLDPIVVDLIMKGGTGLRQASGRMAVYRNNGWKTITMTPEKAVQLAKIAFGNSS
Put plainly: EMSA; binding equivalent to wild type; not unwound; EMSA: 0.1 nM DNA, 20 mM HEPES-NaOH pH 7.5, 135 mM NaCl, 0.1% NP40 alternative, 0.1 mg/ml BSA, 2 mM DTT, 1 mM EDTA, 10% glycerol, 22 °C, 20 min; footprinting the same with 10 nM DNA and no glycerol. As to conditions: protein: recombinant; tags: GST tag removed with thrombin; label: 5'-32P; four-way non-homologous Holliday junction, four 20 bp arms.

For data set [6], the target named is T1, D10 helicase (wild type). Description: EMSA with poly d(AT) competitor; no ATP/Mg2+; affinity near identical to Y20; bound but not unwound; EMSA: 0.1 nM DNA, 20 mM HEPES-NaOH pH 7.5, 135 mM NaCl, 0.1% NP40 alternative, 0.1 mg/ml BSA, 2 mM DTT, 1 mM EDTA, 10% glycerol, 22 °C, 20 min; footprinting the same with 10 nM DNA and no glycerol. Conditions: protein: recombinant; tags: GST tag removed with thrombin; label: 5'-32P; three-way Y-junction, three 20 bp arms.

B1: Y20-3 (oligo A nicked) (dsDNA)
DNA 1: TTCGAAACGTGCGCGCCCAT
DNA 2: ACGCCAAGCTTAACGGTGAT
DNA 3: ATCACCGTTAAGCTTGGCGTCGAATTCGAGCTCGGTACCC
DNA 4: GGGTACCGAGCTCGAATTCGATGGGCGCGCACGTTTCGAA
B1: the binding signal with D10 helicase (wild type) [1] is ~2 fold lower affinity than Y20.

B2: Y20 (dsDNA)
DNA 1: TTCGAAACGTGCGCGCCCATACGCCAAGCTTAACGGTGAT
DNA 2: ATCACCGTTAAGCTTGGCGTCGAATTCGAGCTCGGTACCC
DNA 3: GGGTACCGAGCTCGAATTCGATGGGCGCGCACGTTTCGAA
Consider B2, for which, in the data set with D10 helicase (wild type) [2], the binding result is “binds”.

B3: Y20' (dsDNA)
DNA 1: TTCGAAACGTGCGCGCCTCGATGCCAAGCTTAACGGTGAT
DNA 2: ATCACCGTTAAGCTTGGCATACGATTCGAGCTCGGTACCC
DNA 3: GGGTACCGAGCTCGAATCGTCGAGGCGCGCACGTTTCGAA
On to B3, for which, in the data set with D10 helicase (wild type) [3], the binding result is recorded as “binds”.

B4: Y20-2 (oligo B nicked) (dsDNA)
DNA 1: TTCGAAACGTGCGCGCCCATACGCCAAGCTTAACGGTGAT
DNA 2: GGGTACCGAGCTCGAATTCGATGGGCGCGCACGTTTCGAA
DNA 3: ATCACCGTTAAGCTTGGCGT
DNA 4: CGAATTCGAGCTCGGTACCC
On to B4, for which the binding result in the data set with D10 helicase (wild type) [4] (nick in strand B at the junction) is given as “binds”.

B5: Y20-1 (oligo C nicked) (dsDNA)
DNA 1: TTCGAAACGTGCGCGCCCATACGCCAAGCTTAACGGTGAT
DNA 2: ATCACCGTTAAGCTTGGCGTCGAATTCGAGCTCGGTACCC
DNA 3: GGGTACCGAGCTCGAATTCG
DNA 4: ATGGGCGCGCACGTTTCGAA
As for B5, in the data set with D10 helicase (wild type) [4] (nick in strand C at the junction), the binding result is “binds”.

B6: NHJ20 (dsDNA)
DNA 1: TTCGAAACGTGCGCGCCCATACGCCAAGCTTAACGGTGAT
DNA 2: ATCACCGTTAAGCTTGGCGTCGAATTCGAGCTCGGTACCC
DNA 3: GGGTACCGAGCTCGAATTCGTGGGCGGTGCCCAACGCATA
DNA 4: TATGCGTTGGGCACCGCCCAATGGGCGCGCACGTTTCGAA
Take B6: the binding result with D10 helicase (wild type) [5] and in the data set with D10 R389N was “binds” each time.

B7: Y20'' (dsDNA)
DNA 1: TTCGAAACGTGCGGAATCATACGGGCGGCTTAACGGTGAT
DNA 2: ATCACCGTTAAGCCGCCCGTCGACCAAGAGCTCGGTACCC
DNA 3: GGGTACCGAGCTCTTGGTCGATGATTCCGCACGTTTCGAA
Regarding B7, the binding result in the data set with D10 helicase (wild type) [6] is given as “binds”.
